Our source for the Kd values is PMC8715211.

This data set concerns the target HIV-1 matrix MA1-131 (HIV-1, UniProt C1JB69 2-132). The data set is described as follows: ITC.

B1: human tRNALys3, in vitro transcribed (structured_RNA)
RNA: GCCCGGAUAGCUCAGUCGGUAGAGCAUCAGACUUUUAAUCUGAGGGUCCAGGGUUCAAGUCCCUGUUCGGGCGCCA
modifications: unmodified transcript
As for B1, binding was characterised by a dissociation constant (Kd) of 270 ± 20 nM.

In general, Kd refers to a measure of binding affinity in units of concentration. Read a high Kd as a looser complex.
